# Test results: publication PMC9456107, “DNA Motifs and an Accessory CRISPR Factor Determine Cas1 Binding and Integration Activity in Sulfolobus islandicus”
# B1: Pfu-WT leader-repeat ssDNA (structured_DNA)
# DNA: CTCCGTAGGAGGATTGGGGCAAAAAAGCCCCCTGTTCCAATAAGACTACAAAAGAATTGAAAG
# B2: leader-proximal WT S/A annealed probe (5:1 or unspecified ratio, contains hairpin ssDNA) (mixed)
# DNA 1: CAAATAGAGGGTTAAAAAACCCTCAGCTAATC
# DNA 2: GATTAGCTGAGGGTTTTTTAACCCTCTATTTG
# Columns and labels:
# PfuCas1 = biological target: T1, PfuCas1 (Pyrococcus furiosus COM1, UniProt I6TWX9 1-322); experiment: EMSA; EMSA on 12% native PAGE, 0.3 uM FAM probe (0.5 uM P1 in Fig S3); buffer, pH and temperature not stated (refers to earlier work); conditions: protein: recombinant, tags: C-terminal His, chain copies: 2, label: 5'-FAM
# T1 sequence: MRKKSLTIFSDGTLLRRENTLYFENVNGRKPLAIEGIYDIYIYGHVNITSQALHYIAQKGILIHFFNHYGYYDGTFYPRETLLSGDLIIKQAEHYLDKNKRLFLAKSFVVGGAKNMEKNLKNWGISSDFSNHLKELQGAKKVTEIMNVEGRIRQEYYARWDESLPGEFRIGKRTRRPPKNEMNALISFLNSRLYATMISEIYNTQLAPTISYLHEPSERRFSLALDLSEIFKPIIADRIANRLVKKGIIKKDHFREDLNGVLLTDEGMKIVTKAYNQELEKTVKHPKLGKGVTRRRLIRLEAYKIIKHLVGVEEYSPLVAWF
# Cas2 (SisCas2) = biological target: T2, Cas2 (SisCas2) (Sulfolobus islandicus REY15A, UniProt F0NH44 1-89); experiment: EMSA; 3.3 and 6.7 uM Cas2; EMSA on 12% native PAGE, 0.3 uM FAM probe (0.5 uM P1 in Fig S3); buffer, pH and temperature not stated (refers to earlier work); conditions: protein: recombinant; tags: C-terminal His; chain copies: 2; label: 5'-FAM on sense strand; mixture of blunt duplex, ssDNA and hairpin
# T2 sequence: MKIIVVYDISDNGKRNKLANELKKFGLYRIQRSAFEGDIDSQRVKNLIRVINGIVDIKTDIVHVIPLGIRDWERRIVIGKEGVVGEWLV
binder,measurement,setting,value
B1,binding result,PfuCas1; hairpin,binds
TCCTCCACTTTCCCCGTAAGGGGTCGGAGGGGGCGGTCTTTCCC (structured_DNA) [Syn-S leader ssDNA],binding result,PfuCas1; two predicted hairpins,binds
B2,binding result,Cas2 (SisCas2),no binding
